B1: clone 236: neutralizing anti-BTN2A1 mAb; VH SEQ ID NO: 116, VL SEQ ID NO: 117 (antibody, V domains shown)
VH: EVQLLESGGGLVQPGGSLRLSCAASGFTFSHYSMSWVRQAPGKGLEWVSGISSSGGFTPYADSVKGRFTISRDNSKNTLYLQMNSLRAEDTAVYYCTGGSGFDIWGQGTMVTVSS
VL: DIQMTQSPSTLSVSVGDRVTITCRASQTISSWLAWFQQKPGQAPKLLIYRASTLETGVPSRFSGSESGTTFTLTINGLQPDDLATYYCQQYATFPWTFGQGTKVEVK
modifications: amino acid sequence of clone 236 VH; amino acid sequence of clone 236 VL
B2: antibody 244: agonistic anti-BTN2A1 antibody; VL SEQ ID NO: 140, VH SEQ ID NO: 144 (antibody, V domains shown)
VH: EVQLLESGGGLVQPGGSLRLSCAASGFTFSEYSMSWVRQAPGKGLEWVSRIGPSGGGTVYADSVKGRFTISRDNSKNTLYLQMNSLRAEDTAMYYCARLGRGAVAELDYWGQGTLVTVSS
VL: QSVLTQPHSVSESPGKTVTISCTRSSGRIGSNYVHWYQHLPGRAPKLLIYGNSNRPSGVPDRFSGSKSGTSASLAITGLQADDEADYYCQTYDNNVWVFGGGTKLTVL
modifications: amino acid sequence of the VH of antibody 244; amino acid sequence of the VL of antibody 244
B3: clone 267: anti-BTN2A1 mAb, partial inhibitor; VH SEQ ID NO: 132, VL SEQ ID NO: 133 (antibody, V domains shown)
VH: EVQLLESGGGLVQPGGSLRLSCAASGFTFSTYVMYWVRQAPGKGLEWVSSISPSGGLTVYVDSVKGRFTISRDNSKNTLYLQMNSLRAEDTAVYYCARVGYSSSDIWGQGTMVTVSS
VL: QYELTQPHSVSESPGKTVTISCTRNGGSIASNAVQWYQQRPGSAPITVIYDDSQRPSGVPDRFSGSIDSSSNTASLTISGLTTEDEADYYCLSFDTTSQIFGGGTKLTVL
modifications: amino acid sequence of clone 267 VH; amino acid sequence of clone 267 VL
B4: clone 266: neutralizing anti-BTN2A1 mAb; VH SEQ ID NO: 124, VL SEQ ID NO: 125 (antibody, V domains shown)
VH: EVQLLESGGGLVQPGGSLRLSCAASGFTFSMYTMMWVRQAPGKGLEWVSGIGSSGGHTKYADSVKGRFTISRDNSKNTLYLQMNSLRAEDTAVYYCARYGHTFETWGQGTMVTVSS
VL: QYELTQPPSASGTPGQRVTISCSGSSSNIGSNYVYWYQQLPGTAPKLLIYRNNQRPSGVPDRFSGSKSGTSASLAISGLRSEDEADYYCAAWDDSLSGSYVFGTGTKVTVL
modifications: amino acid sequence of clone 266 VH; amino acid sequence of clone 266 VL

How the values were obtained:
[1] = system: in vitro pre-expanded CD3+Vδ2+ γδ T cells; assay: HMBPP or anti-CD3/anti-CD28 activation of purified in vitro-expanded Vδ2+ T cells ± neutralizing anti-BTN2A1 mAb; assay type: cell-based, human; conditions: HMBPP 0.5 ng/ml, 10 μg/ml neutralizing anti-BTN2A1 mAb, no APCs
Protocol: CD25 expression was determined by flow cytometry, and IFN-γ concentration was determined by cytometric bead array (BD Bioscience) as per manufacturer instructions.

γδ T cells = assay: Identification of BTN2A1 agonistic antibodies: CD25 and interferon γ of expanded γδ T cells; assay type: cell-based, human; conditions: 10 μg/ml antibody overnight, vs isotype control BM4
Protocol: In some experiments γδ T cells were enriched by MACS using PE-Cy7-conjugated anti-γδTCR followed by anti-phycoerythrin-mediated magnetic bead purification (Miltenyi Biotec). After enrichment CD3+Vδ2+ γδ T cells were further purified by sorting using an Aria III (BD). Enriched γδ T cells were stimulated in vitro for 48 h with plate-bound anti-CD3ε (OKT3, 10 ug/ml, Bio-X-Cell), soluble anti-CD28 (CD28.2, 1 ug/ml, BD Pharmingen), phytohemagglutinin (0.5 μg/ml, Sigma), IL-15 (50 ng/ml), and recombinant human IL-2 (100 U/ml, PeproTech), followed by maintenance with IL-2 and IL-15 for 14-21 d. Cells were cultured in complete medium consisting of a 50:50 (v/v) mixture of RPMI-1640 and AIM-V (Invitrogen) supplemented with 10% (v/v) FCS (JRH Biosciences), penicillin (100 U/ml), streptomycin (100 μg/ml), Glutamax (2 mM), sodium pyruvate (1 mM), nonessential amino acids (0.1 mM), and HEPES buffer (15 mM), pH 7.2-7.5 (all from Invitrogen Life Technologies), plus 50 μM 2-mercaptoethanol (Sigma-Aldrich).
The inventors screened the panel of antibodies specific for BTN2A1, as described above, to identify those able to agonise BTN2A1. The inventors assessed the ability of anti-BTN2A1 antibodies to activate γδ T cells. The inventors assessed upregulation of CD25 on the surface of previously expanded γδ T cells following culturing the cells with 10 μg/ml anti-BTN2A1 antibodies or isotype control antibody (BM4) overnight.
The inventors additionally measured levels of interferon γ secreted by γδ T cells following culture in the presence of 10 μg/ml anti-BTN2A1 antibodies or isotype control antibody (BM4) overnight. Interferon γ secretion is another indicator of TCR-dependent activation.

| Molecule | HMBPP-induced activation (CD25 upregulation, IFN-γ production) [1] | level of secreted interferon γ (γδ T cells) | percentage of γδ T cells expressing CD25 (γδ T cells) |
| --- | --- | --- | --- |
| B1 | failed to upregulate CD25 and produce IFN-γ | – | – |
| B2 | – | increase the level of secreted interferon γ | increase the percentage of γδ T cells expressing CD25 |
| B3 | only a partial inhibitor | – | – |
| B4 | failed to upregulate CD25 and produce IFN-γ | – | – |

— patent US20220273713A1, “METHOD OF INHIBITING OR ACTIVATING GAMMA DELTA T CELLS” (The University of Melbourne, priority 2019, published 2022)
